Experiment [1] concerns the target CFP from CFP-empty plasmid (pECFP). The experiment in a line: FRET by acceptor photobleaching, negative control: cotransfection of CFP- and YFP-empty plasmids.
Experiment [2] has as its target CFP-tagged CD44 (human full length CD44s cDNA fused in frame into pECFP, expressed in MDA-MB231 cells) (human) (UniProt P16070). Put plainly: FRET by acceptor photobleaching, confocal microscopy, MDA-MB231 cells coexpressing CFP-CD44 and YFP-OPN.
Experiment [3] has the same target. The experiment in a line: FRET by acceptor photobleaching in MDA-MB231 cells, in the presence of blocking antibody to αvβ3 integrin.
The target is the same in experiment [4]. The experiment in a line: FRET by acceptor photobleaching in MDA-MB231 cells, in the presence of the mutated OPN-R3 RNA aptamer (control).

We go through two substances from US20100293752A1.

With YFP from YFP-empty plasmid (pEYFP), the FRET efficiency in experiment [1] was determined as 0.23%.
In the case of “YFP-tagged OPN (human OPN-a cDNA fused in frame into pEYFP, expressed in MDA-MB231 cells) (from UniProt P10451 1-314) (ligand)”, the FRET efficiency is 24.2% in experiment [2], 19.6% in experiment [3] and 23.1% in experiment [4].
